# Test results published in US20230203161A1 (TENEOBIO, published 2023).
# Biological target: T1, human Prostate Specific Membrane Antigen (PSMA) (human, UniProt Q04609 1-750)
# T1 construct: whole, on cells; also called Glutamate Carboxypeptidase II; FOLH1
# Experiment: flow cytometry on LNCaP cells
# Experimental: Briefly, 50,000 target cells were stained with a dilution series of purified UniAbs™ for 30 minutes at 4° C. Following incubation, the cells were washed twice with flow cytometry buffer (1×PBS, 1% BSA, 0.1% NaN₃) and stained with goat F(ab′)₂ anti-human IgG conjugated to R-phycoerythrin (PE) (Southern Biotech, cat. #2042-09) to detect cell-bound antibodies. After a 20-minute incubation at 4° C., the cells were washed twice with flow cytometry buffer and the mean fluorescence intensity (MFI) was measured by flow cytometry. The MFI of cells stained with secondary antibody alone were used for determination of background signal and binding of each antibody was converted to fold over background. […] In some experiments EC50 values were calculated using GraphPad Prism 7.
# Column 1 indicates the clone ID of the HCAb. Column 2 indicates binding to LNCaP cells measured as fold over the background MFI signal.
# T1 sequence (Q04609 whole entry): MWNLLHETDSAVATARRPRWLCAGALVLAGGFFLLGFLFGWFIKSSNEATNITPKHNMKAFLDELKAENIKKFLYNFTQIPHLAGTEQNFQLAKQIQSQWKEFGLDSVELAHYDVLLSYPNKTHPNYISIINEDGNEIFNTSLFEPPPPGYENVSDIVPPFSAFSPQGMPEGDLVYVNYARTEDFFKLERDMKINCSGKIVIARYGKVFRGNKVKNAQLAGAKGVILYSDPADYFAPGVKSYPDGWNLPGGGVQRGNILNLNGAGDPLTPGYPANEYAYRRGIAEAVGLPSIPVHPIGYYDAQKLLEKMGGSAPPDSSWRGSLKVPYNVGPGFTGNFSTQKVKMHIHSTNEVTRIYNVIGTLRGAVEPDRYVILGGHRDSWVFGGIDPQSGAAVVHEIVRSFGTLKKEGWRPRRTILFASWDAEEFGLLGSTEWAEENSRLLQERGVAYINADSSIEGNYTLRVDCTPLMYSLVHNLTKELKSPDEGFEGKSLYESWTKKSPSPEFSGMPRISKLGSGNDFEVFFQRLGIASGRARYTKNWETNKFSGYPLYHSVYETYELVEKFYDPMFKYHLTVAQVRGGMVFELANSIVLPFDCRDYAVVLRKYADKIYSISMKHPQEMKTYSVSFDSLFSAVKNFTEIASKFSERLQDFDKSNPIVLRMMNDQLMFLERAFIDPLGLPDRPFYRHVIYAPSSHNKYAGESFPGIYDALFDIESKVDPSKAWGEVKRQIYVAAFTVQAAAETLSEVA
binder,measurement,value
"anti-PSMA heavy-chain antibody (HCAb) clone ID 345480 (antibody, V domains shown, Heavy chain-only antibody (UniAb)) VH: QVQLVESGGGVVQPGRSLRLSCAASGFSFSSYGMHWVRQAPGKGLEWVAVIWYDGSNRYYADSVKGRFTISRDNSKNTLYLQMNSLRAEDTAVYYCAREPRIGYYYESSGYYSLDYRGQGTLVTVSS",fold over background MFI,47 fold over background
"anti-PSMA heavy-chain antibody (HCAb) clone ID 345443 (antibody, V domains shown, Heavy chain-only antibody (UniAb)) VH: QVQLVESGGGVVQPGRSLRLSCAASGFSFSSYGMHWVRQAPGKGLEGVAVIWYDGSNRYYADSVKGRFTISRDNSKNTLFLQMNSLRAEDTAVYYCAREPRIGYYYESSGYYSLDYRGQGTLVTVSS",fold over background MFI,84 fold over background
"anti-PSMA heavy-chain antibody (HCAb) clone ID 345436 (antibody, V domains shown, Heavy chain-only antibody (UniAb)) VH: QVQLVESGGGVVQPGRSLRLSCAASGFSFSRYGMHWVRQAPGKGLEGVAVIWYDGSNKYYADSVKGRFTISRDNSKNTLYLQMNSLRAEDTAVYYCAREPRIGYYYESSGYYSLDYRGQGTLVTVSS",fold over background MFI,87 fold over background
"anti-PSMA heavy-chain antibody (HCAb) clone ID 345493 (antibody, V domains shown, Heavy chain-only antibody (UniAb)) VH: QVQLVESGGGVVQPGRSLRLSCAASGFSFSRYGMHWVRQAPGKGLEWVAVIWYDGSNRYYADSVKGRFTISRDNSKNTLYLQMNSLRAEDTAVYYCAREPRIGYYYESSGYYSLDYRGQGTLVTVSS",fold over background MFI,101 fold over background
"anti-PSMA heavy-chain antibody (HCAb) clone ID 326084 (antibody, V domains shown, Heavy chain-only antibody (UniAb)) VH: QVQLVESGGGVVQPGRSLRLSCAASGFSFSSYGMHWVRQAPGKGLEGVAVIWYDGSNRYYADSVKGRFTISRDNSKNTLYLQMNSLRAEDTAVYYCAREPRIGYYYDSSGYYSLDYRGQGTLVTVSS",fold over background MFI,125 fold over background
"anti-PSMA heavy-chain antibody (HCAb) clone ID 326116 (antibody, V domains shown, Heavy chain-only antibody (UniAb)) VH: QVQLVESGGGVVQPGRSLRLSCAASGFSFSRYGMHWVRQAPGKGLEGVAVISYDGSNKYYADSVKGRFTISRDYSKNTLYLQMNSLRAEDTAVYYCAREPRIGYYYDSSGYDSLDYRGQGTLVTVSS",fold over background MFI,38 fold over background
"anti-PSMA heavy-chain antibody (HCAb) clone ID 345421 (antibody, V domains shown, Heavy chain-only antibody (UniAb)) VH: QVQLVESVGGVVQPGRSLRLSCAASGFSFSSYGMHWVRQAPGKGLEGVAVIWYDGSNRYYADSVKGRFTISRDNSKNTLYLQMNSLRAEDTAVYYCAREPRIGYYYESSGYYSLDYRGQGTLVTVSS",fold over background MFI,22 fold over background
"anti-PSMA heavy-chain antibody (HCAb) clone ID 345461 (antibody, V domains shown, Heavy chain-only antibody (UniAb)) VH: QVQLVESGGGVVQPGRSLRLSCAASGFSFTSYGMHWVRQAPGKGLEGVAVIWYDGSNRYYADSVKGRFTISRDNSKNTLYLQMNSLRAEDTAVYYCAREPRIGYYYESSGYYSLDYRGQGTLVTVSS",fold over background MFI,102 fold over background
"anti-PSMA heavy-chain antibody (HCAb) clone ID 326029 (antibody, V domains shown, Heavy chain-only antibody (UniAb)) VH: QVQLVESGGGVVQPGRSLRLSCAASGFSFSRYGMHWVRQAPGKGLEWVAVISYDGSNKYYADSVKGRFTISRDNSKNTLYLQMNSLRAEDTAVYYCAREPRVGYYYETSGYYSLDYRGQGTLVTVSS",fold over background MFI,109 fold over background
"anti-PSMA heavy-chain antibody (HCAb) clone ID 325742 (antibody, V domains shown, Heavy chain-only antibody (UniAb)) VH: QVQLVESGGGVVQPGRSLRLSCAASGFSFSSYGMHWVRQAPGKGLEWVAVIWYDGSNKYYADSVKGRFTISRDYSKNTLYLQMNSLRAEDTAVYYCAREPRIGYYYESSGYDSLDYRGQGTLVTVSS",fold over background MFI,200 fold over background
"anti-PSMA heavy-chain antibody (HCAb) clone ID 325836 (antibody, V domains shown, Heavy chain-only antibody (UniAb)) VH: QVQLVESGGGVVQPGRSLRLSCAASGFSFRSYGMHWVRQAPGKGLEWVAVIWYDGSNKYYADSVKGRFTISRDYSKNTLYLQMNSLRAEDTAVYYCAREPRIGYYYDSSGYDSLDYRGQGTLVTVSS",fold over background MFI,163 fold over background
"anti-PSMA heavy-chain antibody (HCAb) clone ID 345438 (antibody, V domains shown, Heavy chain-only antibody (UniAb)) VH: QVQLVESGGGVVQPGRSLRLSCAASGFSFSSYGMHWVRQAPGKGPEWVAVIWYDGSNKYYADSVKGRFTISRDNSKNTLYLQMNSLRAEDTAVYYCAREPRIGYYYESSGYYSLDYRGQGTLVTVSS",fold over background MFI,13 fold over background
"anti-PSMA heavy-chain antibody (HCAb) clone ID 345485 (antibody, V domains shown, Heavy chain-only antibody (UniAb)) VH: QVQLVESGGGVVQPGRSLRLSCAASGFSFRSYGMHWVRQAPGKGLEWVAVIWYDGSNKYYADSVKGRFTISRDNSKNTMYLQMNSLRAEDTAVYYCAREPRIGYYYESSGYYSLDYRGQGTLVTVSS",fold over background MFI,71 fold over background
"anti-PSMA heavy-chain antibody (HCAb) clone ID 345447 (antibody, V domains shown, Heavy chain-only antibody (UniAb)) VH: QVQLVESGGGVVQPGRSLRLSCAASGFSFSSYGMHWVRQAPGKGLEGVAVISYDGSNRYYADSVKGRFTISRDNSKNTLYLQMNSLRAEDTAVYYCAREPRIGYYYESSGYYSLDYRGQGTLVTVSS",fold over background MFI,14 fold over background
"anti-PSMA heavy-chain antibody (HCAb) clone ID 345444 (antibody, V domains shown, Heavy chain-only antibody (UniAb)) VH: QVQLVESGGGVVQPGRSLRLSCAASGFTFSSYGMHWVRQAPGKGLEGVAVIWYDGSNRYYADSVKGRFTISRDNSKNTLYLQMNSLRAEDTAVYYCAREPRIGYYYESSGYYSLDYRGQGTLVTVSS",fold over background MFI,23 fold over background
"anti-PSMA heavy-chain antibody (HCAb) clone ID 345490 (antibody, V domains shown, Heavy chain-only antibody (UniAb)) VH: QVQLVESGGGLVKPGGSLRLSCAASGFSFSSYGMHWVRQAPGKGLEGVAVIWYDGSNRYYADSVKGRFTISRDNSKNTLYLQMNSLRAEDTAVYYCAREPRIGYYYESSGYYSLDYRGQGTLVTVSS",fold over background MFI,80 fold over background
"anti-PSMA heavy-chain antibody (HCAb) clone ID 345497 (antibody, V domains shown, Heavy chain-only antibody (UniAb)) VH: QVQLVESGGGVVQPGRSLRLSCAASGFSFSRYGMHWVRQAPGKGLEGVAVIWYDGSNRYYADSVKGRFTISRDNSKNTLYLQMNSLRAEDTAVYYCAREPRIGYYYESSGYYSLDYRGQGTLVTVSS",fold over background MFI,112 fold over background
"anti-PSMA heavy-chain antibody (HCAb) clone ID 325867 (antibody, V domains shown, Heavy chain-only antibody (UniAb)) VH: QVQLVESGGGVVQPGRSLRLSCAASGFSFRSYGMHWVRQAPGKGLEWVAVIWYDGSNKYYADSVKGRFTISRDYSKNTLYLQMNSLRAEDTAVYYCAREPRIGYYYESSGYDSLDYRGQGTLVTVSS",fold over background MFI,210 fold over background
"anti-PSMA heavy-chain antibody (HCAb) clone ID 326087 (antibody, V domains shown, Heavy chain-only antibody (UniAb)) VH: QVQLVESGGGVVQPGRSLRLSCAASGFIFRSYGMHWVRQAPGKGPEWVAVIWYDGSNKYYADSVKGRFTISRDNSKNTLYLQMNSLRAEDTAVYYCAREPRIGYYYDSSGYDSLDYRGQGTLVTVSS",fold over background MFI,129 fold over background
"anti-PSMA heavy-chain antibody (HCAb) clone ID 345508 (antibody, V domains shown, Heavy chain-only antibody (UniAb)) VH: QVQLVESGGGVVQPGRSLRLSCAASGFSFSSYGMHWVRQAPGKGPEWVAVIWYDGSNRYYADSVKGRFTISRDNSKNTLYLQMNSLRAEDTAVYYCAREPRIGYYYESSGYYSLDYRGQGTLVTVSS",fold over background MFI,55 fold over background
"anti-PSMA heavy-chain antibody (HCAb) clone ID 345482 (antibody, V domains shown, Heavy chain-only antibody (UniAb)) VH: QVQLVESGGGVVQPGRSLRLSCAASGFSFSSYGMHWVRQAPGKGLEGVAVIWYDGSNRYYADSVKGRFTISRDSSKNTLYLQMNSLRAEDTAVYYCAREPRIGYYYESSGYYSLDYRGQGTLVTVSS",fold over background MFI,80 fold over background
"anti-PSMA heavy-chain antibody (HCAb) clone ID 326027 (antibody, V domains shown, Heavy chain-only antibody (UniAb)) VH: QVQLVESGGGVVQPGRSLRLSCAASGFSFRSYGMHWVRQAPGKGLEWVAVIWYDGSNKYYADSVKGRFTISRDNSKNTLYLQMNSLRAEDTAVYYCAREPRIGYYYDSSGYDSLDYRGQGTLVTVSS",fold over background MFI,138 fold over background
"anti-PSMA heavy-chain antibody (HCAb) clone ID 345463 (antibody, V domains shown, Heavy chain-only antibody (UniAb)) VH: QVQLVESGGGVVQPGRSLRLSCAASGFIFRSYGMHWVRQAPGKGPEWVAVIWYDGSNKYYADSVKGRFTISRDNSKNTLYLQMNSLRAEDTAVYYCAREPRIGYYYESSGYYSLDYRGQGTLVTVSS",fold over background MFI,68 fold over background
"anti-PSMA heavy-chain antibody (HCAb) clone ID 345505 (antibody, V domains shown, Heavy chain-only antibody (UniAb)) VH: QVQLVESGGGVVQPGRSLRLSCAASGFTFISYGMHWVRQAPGKGLEGVAVIWYDGSNRYYADSVKGRFTISRDNSKNTLYLQMNSLRAEDTAVYYCAREPRIGYYYESSGYYSLDYRGQGTLVTVSS",fold over background MFI,59 fold over background
"anti-PSMA heavy-chain antibody (HCAb) clone ID 326028 (antibody, V domains shown, Heavy chain-only antibody (UniAb)) VH: QVQLVESGGGVVQPGRSLRLSCAASGFSFRSYGMHWVRQAPGKGLEWVAVISYDGSNKYYADSVKGRFTISRDYSKNTLYLQMNSLRAEDTAVYYCAREPRIGYYYDSSGYDSLDYRGQGTLVTVSS",fold over background MFI,117 fold over background
"anti-PSMA heavy-chain antibody (HCAb) clone ID 325920 (antibody, V domains shown, Heavy chain-only antibody (UniAb)) VH: QLQLQESGPGLVKPSETLSLTCTVSGGSISSSSYYWGWIRQPPGKGLEWIGSIDYSGYTYYNPSLQSRVTISVDTSKNQFSLKLSSVTAADTAVYNCARHKAATADFDYRGQGTLVTVSS",fold over background MFI,282 fold over background
"anti-PSMA heavy-chain antibody (HCAb) clone ID 346165 (antibody, V domains shown, Heavy chain-only antibody (UniAb)) VH: QLQLQESGPGLVKPSETLSLTCTVSGGSISSSSYYWGWIRQPPGKGLEWIGSVDYSGYTYYNPSLQSRVTISVDTSKNQFSLKLSSVTAADTAVYNCARHKAATADFDYRGQGTLVTVSS",fold over background MFI,243 fold over background
"anti-PSMA heavy-chain antibody (HCAb) clone ID 326109 (antibody, V domains shown, Heavy chain-only antibody (UniAb)) VH: QLQLQESGPGLVKPSETLSLTCTVSGGSISSNSYYWGWIRQSPGKGLEWLGSIYDSGSTHYNPSLKSRVIISGDTSKNQFSLKLSSVTAADTAVYYCARHKAATADFDYRGQGTLVTVSS",fold over background MFI,25 fold over background
"anti-PSMA heavy-chain antibody (HCAb) clone ID 346181 (antibody, V domains shown, Heavy chain-only antibody (UniAb)) VH: QLQLQESGPGLVKPSETLSLTCTVSGGSISSSNYFWGWIRQSPGKGLEWIGSIDYSGYTYYNPSLKSRVTISVDTSKNQFSLKLSSVTAADTAVYNCARHKAATADFDYRGQGTLVTVSS",fold over background MFI,264 fold over background
